The results in this text go back to patent publication US20260234610, “NOVEL CAS12A PROTEIN, VARIANT OF NOVEL CAS12A PROTEIN, AND USE THEREOF FOR EUKARYOTIC GENOME EDITING” (NSAGE CORP., published 2026).

What all share (assay): cell_activity; PAM TTTV/TTTN; RNP in HEK293T
Common to all, as to conditions: tags: NLS, His6

The target in one data set is T1, ID233 Cas12a.
T1 chain: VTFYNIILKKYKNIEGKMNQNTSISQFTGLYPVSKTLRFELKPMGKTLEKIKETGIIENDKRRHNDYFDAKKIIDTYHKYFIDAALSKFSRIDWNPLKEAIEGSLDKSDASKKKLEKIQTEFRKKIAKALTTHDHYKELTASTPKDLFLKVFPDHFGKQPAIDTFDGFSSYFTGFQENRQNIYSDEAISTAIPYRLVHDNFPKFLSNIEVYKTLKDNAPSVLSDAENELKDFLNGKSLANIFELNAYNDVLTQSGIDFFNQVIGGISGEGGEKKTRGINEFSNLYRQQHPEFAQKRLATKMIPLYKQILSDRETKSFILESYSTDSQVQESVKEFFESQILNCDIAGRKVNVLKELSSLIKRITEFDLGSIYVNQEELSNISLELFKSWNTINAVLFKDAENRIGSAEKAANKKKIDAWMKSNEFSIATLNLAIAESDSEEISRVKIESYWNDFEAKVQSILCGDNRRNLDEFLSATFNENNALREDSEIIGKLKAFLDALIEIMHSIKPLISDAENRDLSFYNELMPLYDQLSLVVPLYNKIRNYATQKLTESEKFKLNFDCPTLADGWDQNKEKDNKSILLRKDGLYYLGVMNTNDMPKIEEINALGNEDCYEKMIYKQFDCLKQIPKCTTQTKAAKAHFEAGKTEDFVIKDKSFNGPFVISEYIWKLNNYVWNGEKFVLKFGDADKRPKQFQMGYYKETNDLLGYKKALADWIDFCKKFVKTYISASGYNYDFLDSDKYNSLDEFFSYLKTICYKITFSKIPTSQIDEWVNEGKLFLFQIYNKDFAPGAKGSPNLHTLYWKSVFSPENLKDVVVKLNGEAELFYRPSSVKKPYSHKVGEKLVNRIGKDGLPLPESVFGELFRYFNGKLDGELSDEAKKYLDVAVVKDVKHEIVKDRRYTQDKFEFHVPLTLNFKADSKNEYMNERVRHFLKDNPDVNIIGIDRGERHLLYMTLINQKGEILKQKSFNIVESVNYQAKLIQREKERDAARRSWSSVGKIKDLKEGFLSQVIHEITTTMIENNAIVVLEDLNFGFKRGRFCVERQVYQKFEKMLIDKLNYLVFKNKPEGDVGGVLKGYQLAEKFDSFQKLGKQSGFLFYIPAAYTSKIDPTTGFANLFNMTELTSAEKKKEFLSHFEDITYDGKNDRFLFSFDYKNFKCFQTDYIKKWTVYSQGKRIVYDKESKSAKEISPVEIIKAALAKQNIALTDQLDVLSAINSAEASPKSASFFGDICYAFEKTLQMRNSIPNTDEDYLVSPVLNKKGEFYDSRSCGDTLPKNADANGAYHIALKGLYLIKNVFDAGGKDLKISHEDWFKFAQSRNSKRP
The method, then:
(§1) To confirm the in vivo gene editing activity of the CRISPR enzymes according to Experimental Example 4.1, the following experiments were performed: [0474] 1) CRISPR/Cas12a complexes were assembled according to Experimental Example 1.5 using CRISPR enzymes prepared according to Experimental Example 4.1 and guide RNAs. [0475] 2) The CRISPR/Cas12a complexes assembled in 1) were transfected into HEK293T cells according to Experimental Example 1.8, and gene editing activity was measured.

Another data set deals with T2, ID236 Cas12a.
T2 chain: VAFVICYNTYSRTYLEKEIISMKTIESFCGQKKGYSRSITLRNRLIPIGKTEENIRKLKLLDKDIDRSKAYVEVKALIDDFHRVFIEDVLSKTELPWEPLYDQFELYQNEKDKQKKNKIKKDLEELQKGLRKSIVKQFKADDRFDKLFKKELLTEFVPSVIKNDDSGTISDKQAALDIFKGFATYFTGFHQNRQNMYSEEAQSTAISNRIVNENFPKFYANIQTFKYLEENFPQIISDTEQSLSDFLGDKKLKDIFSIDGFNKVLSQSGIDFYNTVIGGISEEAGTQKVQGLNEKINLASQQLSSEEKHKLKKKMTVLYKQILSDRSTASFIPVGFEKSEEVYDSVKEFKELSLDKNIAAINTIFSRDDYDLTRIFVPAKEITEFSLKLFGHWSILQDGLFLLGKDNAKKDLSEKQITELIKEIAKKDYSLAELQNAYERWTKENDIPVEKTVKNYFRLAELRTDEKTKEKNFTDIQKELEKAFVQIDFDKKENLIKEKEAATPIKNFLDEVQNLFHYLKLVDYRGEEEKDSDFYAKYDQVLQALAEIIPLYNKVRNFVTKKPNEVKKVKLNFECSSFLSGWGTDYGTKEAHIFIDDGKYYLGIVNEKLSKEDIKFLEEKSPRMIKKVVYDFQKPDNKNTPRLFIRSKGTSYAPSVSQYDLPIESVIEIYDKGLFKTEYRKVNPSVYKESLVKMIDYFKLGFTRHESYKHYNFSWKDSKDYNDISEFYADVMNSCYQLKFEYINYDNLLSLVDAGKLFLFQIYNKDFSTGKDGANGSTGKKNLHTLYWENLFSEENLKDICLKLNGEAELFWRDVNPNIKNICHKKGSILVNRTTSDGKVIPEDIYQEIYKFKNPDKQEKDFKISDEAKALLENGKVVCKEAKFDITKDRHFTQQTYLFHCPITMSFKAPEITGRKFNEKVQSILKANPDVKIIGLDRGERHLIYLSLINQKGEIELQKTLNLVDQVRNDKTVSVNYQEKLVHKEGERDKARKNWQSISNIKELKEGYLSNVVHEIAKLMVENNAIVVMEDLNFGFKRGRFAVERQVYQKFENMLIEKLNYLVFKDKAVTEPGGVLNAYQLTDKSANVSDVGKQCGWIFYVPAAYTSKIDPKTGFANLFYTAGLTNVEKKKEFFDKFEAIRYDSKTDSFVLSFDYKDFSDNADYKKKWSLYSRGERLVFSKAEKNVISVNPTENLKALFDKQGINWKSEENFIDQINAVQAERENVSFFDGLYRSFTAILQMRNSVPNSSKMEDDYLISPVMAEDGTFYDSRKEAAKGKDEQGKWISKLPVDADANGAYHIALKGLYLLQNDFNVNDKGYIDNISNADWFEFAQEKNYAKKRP
On the procedure: as §1

Another data set deals with ID218 Cas12a. The method, then:
as §1

B1: 233 crRNA MTAP ; MTAP target (ssRNA ; dsDNA)
RNA: AAAAUUUCUACUCUUGUAGAUGCCCCAAUAAUCCCCACAUGUCA
DNA 1: GCCCCAATAATCCCCACATGTCA
DNA 2: TGACATGTGGGGATTATTGGGGC
The molecule B1 registered an activity in the data set with ID233 Cas12a of 14.8 % indel.

B2: 236 crRNA MTAP ; MTAP target (ssRNA ; dsDNA)
RNA: UAAAUUUCUACUGUUGUAGAUGCCCCAAUAAUCCCCACAUGUCA
DNA 1: GCCCCAATAATCCCCACATGTCA
DNA 2: TGACATGTGGGGATTATTGGGGC
For the molecule B2, in the data set with ID236 Cas12a, the activity amounted to 17 % indel.

B3: 218 crRNA DYRK1A ; DYRK1A target (ssRNA ; dsDNA)
RNA: UAAUUUCUACUAAGUGUAGAUGAAGCACAUCAAGGACAUUCUAA
DNA 1: GAAGCACATCAAGGACATTCTAA
DNA 2: TTAGAATGTCCTTGATGTGCTTC
For the molecule B3, the activity in the data set with ID218 Cas12a came out at 71 % indel.

B4: 218 crRNA MTAP ; MTAP target (ssRNA ; dsDNA)
RNA: UAAUUUCUACUAAGUGUAGAUGCCCCAAUAAUCCCCACAUGUCA
DNA 1: GCCCCAATAATCCCCACATGTCA
DNA 2: TGACATGTGGGGATTATTGGGGC
Turning to B4, the activity in the data set with ID218 Cas12a is 90.4 % indel.

B5: 233 crRNA DYRK1A ; DYRK1A target (ssRNA ; dsDNA)
RNA: AAAAUUUCUACUCUUGUAGAUGAAGCACAUCAAGGACAUUCUAA
DNA 1: GAAGCACATCAAGGACATTCTAA
DNA 2: TTAGAATGTCCTTGATGTGCTTC
In the case of B5, the activity in the data set with ID233 Cas12a turned out to be 12.2 % indel.

B6: 236 crRNA DYRK1A ; DYRK1A target (ssRNA ; dsDNA)
RNA: UAAAUUUCUACUGUUGUAGAUGAAGCACAUCAAGGACAUUCUAA
DNA 1: GAAGCACATCAAGGACATTCTAA
DNA 2: TTAGAATGTCCTTGATGTGCTTC
In the case of B6, the activity in the data set with ID236 Cas12a came out at 5.2 % indel.
